Source: PMC12636033, “Chemical Engineering of Transcription Factors Uncovered Cell-Permeable μMax Modulators”

B1: dBr_Jan07_38419 (dsDNA)
DNA 1: ATTGCTCAGTGACACAGATATGAAGCGCTATGCATCGTCTGTGTTCCGTTGTCCGTGCTG
DNA 2: CAGCACGGACAACGGAACACAGACGATGCATAGCGCTTCATATCTGTGTCACTGAGCAAT
B2: dBr_Jan07_20877 (dsDNA)
DNA 1: TAAACCTAGAGACGCTAAGAACACTTACAGGCGAGCGTCTGTGTTCCGTTGTCCGTGCTG
DNA 2: CAGCACGGACAACGGAACACAGACGCTCGCCTGTAAGTGTTCTTAGCGTCTCTAGGTTTA
B3: dBr_Jan07_16204 (dsDNA)
DNA 1: ATGAACCAATCGGTCGATTAGAGATAGAGAAAGAAGGTCTGTGTTCCGTTGTCCGTGCTG
DNA 2: CAGCACGGACAACGGAACACAGACCTTCTTTCTCTATCTCTAATCGACCGATTGGTTCAT
B4: dBr_Jan07_36814 (dsDNA)
DNA 1: GCGCAAGCCATGACCCGGTACGATTTAGAAATGGCGGTCTGTGTTCCGTTGTCCGTGCTG
DNA 2: CAGCACGGACAACGGAACACAGACCGCCATTTCTAAATCGTACCGGGTCATGGCTTGCGC
B5: dBr_Jan07_22788 (dsDNA)
DNA 1: TTGTTTCGCATCGCTAGGCATTGATAACGGAAGCTGGTCTGTGTTCCGTTGTCCGTGCTG
DNA 2: CAGCACGGACAACGGAACACAGACCAGCTTCCGTTATCAATGCCTAGCGATGCGAAACAA
B6: dBr_Jan07_02776 (dsDNA)
DNA 1: GACGAAGTAAGGCTAGCTTGTCGCTAAAAAGACGCAGTCTGTGTTCCGTTGTCCGTGCTG
DNA 2: CAGCACGGACAACGGAACACAGACTGCGTCTTTTTAGCGACAAGCTAGCCTTACTTCGTC
B7: dBr_Jan07_32293 (dsDNA)
DNA 1: TCGCGGCTCGAAGCACCCTCCCCAGGGGCATCAGCAGTCTGTGTTCCGTTGTCCGTGCTG
DNA 2: CAGCACGGACAACGGAACACAGACTGCTGATGCCCCTGGGGAGGGTGCTTCGAGCCGCGA
B8: dBr_Jan07_19630 (dsDNA)
DNA 1: AAGCGAGCAGATAAGCCTAAGCCCGAGCTGAACAAAGTCTGTGTTCCGTTGTCCGTGCTG
DNA 2: CAGCACGGACAACGGAACACAGACTTTGTTCAGCTCGGGCTTAGGCTTATCTGCTCGCTT
B9: dBr_Jan07_39455 (dsDNA)
DNA 1: TGAAAGACCTTAGATGGGCTTGTCTCTTGGCGTTTGGTCTGTGTTCCGTTGTCCGTGCTG
DNA 2: CAGCACGGACAACGGAACACAGACCAAACGCCAAGAGACAAGCCCATCTAAGGTCTTTCA
B10: dBr_Jan07_22161 (dsDNA)
DNA 1: GAATTTACCCGCGCTGTTGGTCACGTGTGTGGTTTTGTCTGTGTTCCGTTGTCCGTGCTG
DNA 2: CAGCACGGACAACGGAACACAGACAAAACCACACACGTGACCAACAGCGCGGGTAAATTC
B11: dBr_Jan07_16464 (dsDNA)
DNA 1: AGATCCAACGAGAGTTATGGACAAACTGGTCCTACAGTCTGTGTTCCGTTGTCCGTGCTG
DNA 2: CAGCACGGACAACGGAACACAGACTGTAGGACCAGTTTGTCCATAACTCTCGTTGGATCT
B12: dBr_Jan07_04879 (dsDNA)
DNA 1: ATAACGGCCCGCCTGGACTGATACTCTGTCGCACCAGTCTGTGTTCCGTTGTCCGTGCTG
DNA 2: CAGCACGGACAACGGAACACAGACTGGTGCGACAGAGTATCAGTCCAGGCGGGCCGTTAT
B13: dBr_Jan07_09107 (dsDNA)
DNA 1: TCTCCTGTGACAATTACGCCCCCCCCAGGCGCCTACGTCTGTGTTCCGTTGTCCGTGCTG
DNA 2: CAGCACGGACAACGGAACACAGACGTAGGCGCCTGGGGGGGGCGTAATTGTCACAGGAGA
B14: dBr_Jan07_17648 (dsDNA)
DNA 1: TTGCGCCCCCAGTCCCGGATATCATAGGAACGAGGAGTCTGTGTTCCGTTGTCCGTGCTG
DNA 2: CAGCACGGACAACGGAACACAGACTCCTCGTTCCTATGATATCCGGGACTGGGGGCGCAA
B15: dBr_Jan07_25737 (dsDNA)
DNA 1: TGCACGACCAGTCATCCACGTGTTTGCCCGCAAAGTGTCTGTGTTCCGTTGTCCGTGCTG
DNA 2: CAGCACGGACAACGGAACACAGACACTTTGCGGGCAAACACGTGGATGACTGGTCGTGCA
B16: dBr_Jan07_01315 (dsDNA)
DNA 1: ATTACCTACTCAACTTACTAGGAAACACGTGCACATGTCTGTGTTCCGTTGTCCGTGCTG
DNA 2: CAGCACGGACAACGGAACACAGACATGTGCACGTGTTTCCTAGTAAGTTGAGTAGGTAAT
B17: dBr_Jan07_03145 (dsDNA)
DNA 1: CCGATTTAGGAGCGGGTAAATACAGGCAGCTCTCTGGTCTGTGTTCCGTTGTCCGTGCTG
DNA 2: CAGCACGGACAACGGAACACAGACCAGAGAGCTGCCTGTATTTACCCGCTCCTAAATCGG
B18: dBr_Jan07_39645 (dsDNA)
DNA 1: AGATCAAAACGTAAGACGACAGGCGAACTTCAGTAAGTCTGTGTTCCGTTGTCCGTGCTG
DNA 2: CAGCACGGACAACGGAACACAGACTTACTGAAGTTCGCCTGTCGTCTTACGTTTTGATCT
B19: dBr_Jan07_33794 (dsDNA)
DNA 1: TATTAGAATGTCAGCTCTCAATCACGTGATTCGGAAGTCTGTGTTCCGTTGTCCGTGCTG
DNA 2: CAGCACGGACAACGGAACACAGACTTCCGAATCACGTGATTGAGAGCTGACATTCTAATA
B20: dBr_Jan07_30895 (dsDNA)
DNA 1: TTGCCGTATAGTGATCCTAAGCGTCCACGTGGATGAGTCTGTGTTCCGTTGTCCGTGCTG
DNA 2: CAGCACGGACAACGGAACACAGACTCATCCACGTGGACGCTTAGGATCACTATACGGCAA
B21: dBr_Jan07_10189 (dsDNA)
DNA 1: GTTTGTGAGGTTCCTGACTCTGAGCGGACCGGTAGAGTCTGTGTTCCGTTGTCCGTGCTG
DNA 2: CAGCACGGACAACGGAACACAGACTCTACCGGTCCGCTCAGAGTCAGGAACCTCACAAAC
B22: dBr_Jan07_10036 (dsDNA)
DNA 1: CCGCGGACAGGTTCAGCCATCCGACTGCTACGCACAGTCTGTGTTCCGTTGTCCGTGCTG
DNA 2: CAGCACGGACAACGGAACACAGACTGTGCGTAGCAGTCGGATGGCTGAACCTGTCCGCGG
B23: dBr_Jan07_10789 (dsDNA)
DNA 1: ACGAGTGGCCCTCGCATCGCGGAAGCTAGACTGATTGTCTGTGTTCCGTTGTCCGTGCTG
DNA 2: CAGCACGGACAACGGAACACAGACAATCAGTCTAGCTTCCGCGATGCGAGGGCCACTCGT
B24: dBr_Jan07_26545 (dsDNA)
DNA 1: ACTGCGCCGGAGAGTTCAACGAACTACTACGTCGAAGTCTGTGTTCCGTTGTCCGTGCTG
DNA 2: CAGCACGGACAACGGAACACAGACTTCGACGTAGTAGTTCGTTGAACTCTCCGGCGCAGT

Target: WT Max (Homo sapiens, UniProt P61244-2 13-93, M65Nle, norleucine written as M; other non-natural residues written as X)
Assay: PBM; 50-200 nM protein; PBS, 2% milk, BSA, salmon testes DNA, 0.02% Triton X-100
Conditions: chain copies: 2; label: surface-attached array probe

Chain of WT Max (P61244 other isoform, or with tags, fused parts or gaps M65Nle): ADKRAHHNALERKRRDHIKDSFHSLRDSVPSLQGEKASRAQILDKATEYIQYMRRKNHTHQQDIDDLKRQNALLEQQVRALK

Row | Binder | binding signal
1 | B1 | -0.96 robust z of log adjusted intensity (ours), mean of two arrays
2 | B2 | -1.02 robust z of log adjusted intensity (ours), mean of two arrays
3 | B3 | -1.46 robust z of log adjusted intensity (ours), mean of two arrays
4 | B4 | -1.34 robust z of log adjusted intensity (ours), mean of two arrays
5 | B5 | -0.82 robust z of log adjusted intensity (ours), mean of two arrays
6 | B6 | -1.15 robust z of log adjusted intensity (ours), mean of two arrays
7 | B7 | -0.93 robust z of log adjusted intensity (ours), mean of two arrays
8 | B8 | -0.87 robust z of log adjusted intensity (ours), mean of two arrays
9 | B9 | -0.88 robust z of log adjusted intensity (ours), mean of two arrays
10 | B10 | 5.72 robust z of log adjusted intensity (ours), mean of two arrays
11 | B11 | -1 robust z of log adjusted intensity (ours), mean of two arrays
12 | B12 | -0.92 robust z of log adjusted intensity (ours), mean of two arrays
13 | B13 | -1.31 robust z of log adjusted intensity (ours), mean of two arrays
14 | B14 | -1.18 robust z of log adjusted intensity (ours), mean of two arrays
15 | B15 | 4.58 robust z of log adjusted intensity (ours), mean of two arrays
16 | B16 | 5.18 robust z of log adjusted intensity (ours), mean of two arrays
17 | B17 | -1.12 robust z of log adjusted intensity (ours), mean of two arrays
18 | B18 | -1.15 robust z of log adjusted intensity (ours), mean of two arrays
19 | B19 | 4.69 robust z of log adjusted intensity (ours), mean of two arrays
20 | B20 | 4.78 robust z of log adjusted intensity (ours), mean of two arrays
21 | B21 | -0.8 robust z of log adjusted intensity (ours), mean of two arrays
22 | B22 | -0.76 robust z of log adjusted intensity (ours), mean of two arrays
23 | B23 | -0.92 robust z of log adjusted intensity (ours), mean of two arrays
24 | B24 | -0.92 robust z of log adjusted intensity (ours), mean of two arrays
